The source of these data is article PMC2138355.

The target of the assay is fourth component of human complement (C'4) (human). Put plainly: sucrose density gradient ultracentrifugation.

With “C'2 oxidized by treatment with a critical concentration of iodine (oxyC'2) (natural protein)”, the s rate of C'2 in mixtures with C'4 (pH 5) amounted to 7.7 S and the s rate of C'2 in mixtures with C'4 (pH 8) amounted to 13.5 S.
